Laboratory results: doi:10.1101/2024.09.20.614183, “Rubisco packaging and stoichiometric composition of a native β-carboxysome” (bioRxiv, 2024)

Target: T1, Rubisco L8S8 hexadecamer (Form IB ribulose 1,5-bisphosphate carboxylase/oxygenase) of Synechococcus elongatus … (Synechococcus elongatus PCC7942 …, UniProt Q31NB3 1-472; Q31NB2 1-111)
T1 construct: RbcL, Rubisco large subunit, Synechococcus elongatus PCC7942; printed MW 52.4 kDa; RbcS, Rubisco small subunit, Synechococcus elongatus PCC7942; printed MW 13.3 kDa; Native holoenzyme imaged inside isolated β-carboxysomes; never isolated on its own; also called Rubisco complex; Rubisco holoenzyme; source: endogenous, inside β-carboxysomes purified from Syn7942 (sucrose gradient …)
T1 sequence (Q31NB2 whole entry, chain 2 of 2, other chains not shown): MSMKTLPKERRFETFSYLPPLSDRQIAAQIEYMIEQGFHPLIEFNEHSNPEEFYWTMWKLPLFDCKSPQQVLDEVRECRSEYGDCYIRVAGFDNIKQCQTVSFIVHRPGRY
Assay: cryo-EM structure; cryo-electron tomography and subtomogram averaging (emClarity) of Rubisco inside intact β-carboxysomes isolated from Syn7942 grown under low light; 185 carboxysomes; D4 symmetry applied; 3.5 Å
Conditions: partners not purified

B1: CcmM, Rubisco-scaffolding linker protein of the Syn7942 β-carboxysome (natural protein, UniProt Q03513-2 1-324, looked up)
chain: MSAYNGQGRLSSEVITQVRSLLNQGYRIGTEHADKRRFRTSSWQPCAPIQSTNERQVLSELENCLSEHEGEYVRLLGIDTNTRSRVFEALIQRPDGSVPESLGSQPVAVASGGGRQSSYASVSGNLSAEVVNKVRNLLAQGYRIGTEHADKRRFRTSSWQSCAPIQSSNERQVLAELENCLSEHEGEYVRLLGIDTASRSRVFEALIQDPQGPVGSAKAAAAPVSSATPSSHSYTSNGSSSSDVAGQVRGLLAQGYRISAEVADKRRFQTSSWQSLPALSGQSEATVLPALESILQEHKGKYVRLIGIDPAARRRVAELLIQKP
notes: CcmM, Synechococcus elongatus PCC7942; Mixture of CcmM58 and CcmM35 in the native carboxysome; only an SSUL module is resolved; also called CcmM SSUL; CcmM58; source: endogenous, inside β-carboxysomes purified from Syn7942 (sucrose gradient ultracentrifugation)
For B1, the “stoichiometry N” value was 4 SSUL domains per Rubisco.
